# Residue numbers refer to the chain shown, from its start.
# B1: factor VIIIa A2 subunit, wild type (other)
# chain: SVAKKHPKTWVHYIAAEEEDWDYAPLVLAPDDRSYKSQYLNNGPQRIGRKYKKVRFMAYTDETFKTREAIQHESGILGPLLYGEVGDTLLIIFKNQASRPYNIYPHGITDVRPLYSRRLPKGVKHLKDFPILPGEIFKYKWTVTVEDGPTKSDPRCLTRYYSSFVNMERDLASGLIGPLLICYKESVDQRGNQIMSDKRNVILFSVFDENRSWYLTENIQRFLPNPAGVQLEDPEFQASNIMHSINGYVFDSLQLSVCLHEVAYWYILSIGAQTDFLSVFFSGYTFKHKMVYEDTLTLFPFSGETVFMSMENPGLWILGCHNSDFRNRGMTALLKVSSCDKNTGDYYEDSYEDISAYLLSKNNAIEPR
# Assays:
# Assay in all cases: cell-based or functional assay
# [1] = biological target: T1, factor VIIIa A1/A3C1C2 dimer, D302A (human, UniProt P00451 20-391; P00451 1709-2351)
# T1 chain 1: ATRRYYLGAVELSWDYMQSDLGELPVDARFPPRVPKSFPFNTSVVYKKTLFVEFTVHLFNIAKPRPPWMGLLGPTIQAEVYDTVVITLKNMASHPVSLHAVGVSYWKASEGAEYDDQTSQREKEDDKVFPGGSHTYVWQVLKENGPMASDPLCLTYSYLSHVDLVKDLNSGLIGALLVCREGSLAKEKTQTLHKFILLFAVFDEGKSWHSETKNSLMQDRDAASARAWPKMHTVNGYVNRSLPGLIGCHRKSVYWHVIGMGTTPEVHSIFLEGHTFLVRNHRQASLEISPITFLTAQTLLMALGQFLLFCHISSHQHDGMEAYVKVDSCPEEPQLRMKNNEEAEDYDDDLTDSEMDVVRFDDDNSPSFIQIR
# T1 chain 2: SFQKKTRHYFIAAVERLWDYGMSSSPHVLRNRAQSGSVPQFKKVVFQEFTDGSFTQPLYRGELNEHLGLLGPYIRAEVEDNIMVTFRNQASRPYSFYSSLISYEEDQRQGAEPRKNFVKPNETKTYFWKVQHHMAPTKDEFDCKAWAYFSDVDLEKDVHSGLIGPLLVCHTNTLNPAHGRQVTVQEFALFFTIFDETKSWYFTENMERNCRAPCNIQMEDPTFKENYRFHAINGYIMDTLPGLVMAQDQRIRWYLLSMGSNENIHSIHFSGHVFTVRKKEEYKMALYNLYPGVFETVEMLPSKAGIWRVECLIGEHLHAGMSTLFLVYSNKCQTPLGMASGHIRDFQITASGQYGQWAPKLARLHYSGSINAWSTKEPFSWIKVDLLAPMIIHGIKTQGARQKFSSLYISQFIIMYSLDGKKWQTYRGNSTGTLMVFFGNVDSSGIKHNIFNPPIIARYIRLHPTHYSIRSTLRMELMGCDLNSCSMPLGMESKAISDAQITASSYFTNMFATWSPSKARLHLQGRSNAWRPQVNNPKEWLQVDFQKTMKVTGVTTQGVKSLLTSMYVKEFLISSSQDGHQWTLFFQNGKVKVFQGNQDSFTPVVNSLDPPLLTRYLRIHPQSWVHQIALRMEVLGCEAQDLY
# [2] = biological target: T2, factor VIIIa A1/A3C1C2 dimer, Y1786F (human, UniProt P00451 20-391; P00451 1709-2351)
# T2 sequence 1: T1 chain 1 with A302D
# T2 sequence 2: T1 chain 2 with Y97F
# [3] = biological target: T3, factor VIIIa A1/A3C1C2 dimer, N1950A (human, UniProt P00451 20-391; P00451 1709-2351)
# T3 sequence 1: T1 chain 1 with A302D
# T3 sequence 2: T1 chain 2 with N261A
binder,measurement,setting,value
B1,"Factor VIIIa decay rate relative to wild type, FIXa (+)",[1],0.43 relative to wild type
same,"Factor VIIIa decay rate, FIXa (+)",[1],0.0049 min⁻¹
same,"Factor VIIIa decay rate relative to wild type, FIXa (+)",[2],20.9 relative to wild type
same,"Factor VIIIa decay rate relative to wild type, FIXa (-)",[2],17 relative to wild type
same,"Factor VIIIa decay rate, FIXa (+)",[2],0.236 min⁻¹
same,"Factor VIIIa decay rate, FIXa (-)",[2],1.07 min⁻¹
same,"Factor VIIIa decay rate relative to wild type, FIXa (+)",[3],1.73 relative to wild type
same,"Factor VIIIa decay rate, FIXa (+)",[3],0.0195 min⁻¹

# Reference: patent US20090118184A1 (UNIVERSITY OF ROCHESTER, published 2009)
